The text below walks through data of paper PMC11284795.

Sequence of FGF21 analog 21 (-1A, 121Q, 168L, 180C; C14 fatty diacid on 180C) (Q9NSA1 other isoform, or with tags, fused parts or gaps): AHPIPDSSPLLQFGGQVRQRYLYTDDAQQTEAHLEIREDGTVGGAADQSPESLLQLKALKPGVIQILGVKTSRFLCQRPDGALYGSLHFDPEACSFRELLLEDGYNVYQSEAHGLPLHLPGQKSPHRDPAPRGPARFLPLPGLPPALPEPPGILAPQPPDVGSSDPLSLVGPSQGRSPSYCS
Sequence of FGF21 analog 2 (-1A) (Q9NSA1 28-209): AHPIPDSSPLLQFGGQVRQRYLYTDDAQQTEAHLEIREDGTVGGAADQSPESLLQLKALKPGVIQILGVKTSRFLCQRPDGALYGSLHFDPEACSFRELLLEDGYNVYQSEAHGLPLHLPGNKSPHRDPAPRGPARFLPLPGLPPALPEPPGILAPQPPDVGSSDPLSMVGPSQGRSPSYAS
Sequence of FGF21 analog 14 (-1A, 121Q, 168L, 179C; cysteamine on 179C) (Q9NSA1 other isoform, or with tags, fused parts or gaps): as the sequence (Q9NSA1 28-209) above, with N122Q, M169L, Y180C counted along it
Sequence of FGF21 analog 13 (-1A, 121Q, 168L, 178C; cysteamine on 178C) (Q9NSA1 other isoform, or with tags, fused parts or gaps): as the sequence (Q9NSA1 28-209) above, with N122Q, M169L, S179C counted along it
Sequence of FGF21 analog 6 (-1A, 121Q, 167C, 168L; cysteamine on 167C) (Q9NSA1 other isoform, or with tags, fused parts or gaps): as the sequence (Q9NSA1 28-209) above, with N122Q, S168C, M169L counted along it
Sequence of FGF21 analog 5 (-1A, 71C, 121Q, 168L; C18 fatty diacid on 71C) (Q9NSA1 other isoform, or with tags, fused parts or gaps): as the sequence (Q9NSA1 28-209) above, with S72C, N122Q, M169L counted along it
Sequence of FGF21 (0) (Q9NSA1 29-209): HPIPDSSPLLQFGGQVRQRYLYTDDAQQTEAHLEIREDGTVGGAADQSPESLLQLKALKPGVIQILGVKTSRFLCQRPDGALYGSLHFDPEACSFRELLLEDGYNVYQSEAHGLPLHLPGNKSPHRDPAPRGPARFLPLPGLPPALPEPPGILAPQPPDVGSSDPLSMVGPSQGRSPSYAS
Sequence of FGF21 analog 19 (-1A, 121Q, 168L, 181C; cysteamine on 181C) (Q9NSA1 other isoform, or with tags, fused parts or gaps): as the sequence (Q9NSA1 28-209) above, with N122Q, M169L, S182C counted along it
Sequence of FGF21 analog 3 (-1A, 121Q) (Q9NSA1 28-209 N149Q): as the sequence (Q9NSA1 28-209) above, with N122Q counted along it
Sequence of cysteamine protected Ala[Gln121, Leu168, Cys180]FGF21 (16) (Q9NSA1 other isoform, or with tags, fused parts or gaps): as the sequence (Q9NSA1 28-209) above, with N122Q, M169L, A181C counted along it
Sequence of FGF21 analog 8 (-1A, 121Q, 168L, 171C; cysteamine on 171C) (Q9NSA1 other isoform, or with tags, fused parts or gaps): as the sequence (Q9NSA1 28-209) above, with N122Q, M169L, P172C counted along it
Sequence of FGF21 analog 11 (-1A, 121Q, 168L, 174C; cysteamine on 174C) (Q9NSA1 other isoform, or with tags, fused parts or gaps): as the sequence (Q9NSA1 28-209) above, with N122Q, M169L, G175C counted along it
Sequence of FGF21 analog 10 (-1A, 121Q, 168L, 174C; C18 fatty diacid on 174C) (Q9NSA1 other isoform, or with tags, fused parts or gaps): as the sequence (Q9NSA1 28-209) above, with N122Q, M169L, G175C counted along it
Sequence of FGF21 analog 9 (-1A, 121Q, 168L, 172C; cysteamine on 172C) (Q9NSA1 other isoform, or with tags, fused parts or gaps): as the sequence (Q9NSA1 28-209) above, with N122Q, M169L, S173C counted along it
Sequence of Met-FGF19 (25) (O95750 other isoform, or with tags, fused parts or gaps): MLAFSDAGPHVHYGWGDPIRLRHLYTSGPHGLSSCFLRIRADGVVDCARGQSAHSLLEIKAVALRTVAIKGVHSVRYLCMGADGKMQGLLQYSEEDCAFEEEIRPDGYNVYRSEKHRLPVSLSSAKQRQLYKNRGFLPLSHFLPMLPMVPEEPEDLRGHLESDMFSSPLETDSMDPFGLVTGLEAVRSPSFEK
Sequence of FGF21 analog 12 (-1A, 121Q, 168L, 176C; cysteamine on 176C) (Q9NSA1 other isoform, or with tags, fused parts or gaps): as the sequence (Q9NSA1 28-209) above, with N122Q, M169L, S177C counted along it
Sequence of FGF21 analog 7 (-1A, 121Q, 168L, 170C; cysteamine on 170C) (Q9NSA1 other isoform, or with tags, fused parts or gaps): as the sequence (Q9NSA1 28-209) above, with N122Q, M169L, G171C counted along it

One test concerns the target human serum albumin (HSA) (human) (UniProt P02768).
Turning to “FGF21 analog 20 (-1A, 121Q, 168L, 180C; C12 fatty diacid on 180C) (from UniProt Q9NSA1 29-209) (ligand)”, the potency (EC50) of ERK phosphorylation in HEK293/human KLB cells with 0.1 and 1.0% HSA: 3.7 and 5.2 nM (5.8 nM without HSA); no HSA-dependent reduction of potency is 5.2 nM.

As to “FGF21 analog 23 (-1A, 121Q, 168L, 180C; C20 fatty diacid on 180C) (from UniProt Q9NSA1 29-209) (ligand)”, the potency (EC50) of ERK phosphorylation in HEK293/human KLB cells with 0.1 and 1.5% HSA: 47 and 173 nM (3.8 nM without HSA) was determined as 173 nM.

“FGF21 analog 21 (-1A, 121Q, 168L, 180C; C14 fatty diacid on 180C) (from UniProt Q9NSA1 29-209) (ligand)” displayed a potency (EC50) of ERK phosphorylation in HEK293/human KLB cells with 0.1, 1.0 and 1.5% HSA: 4.0, 5.8 and 8.6 nM (5.2 nM without HSA); no HSA-dependent reduction of potency of 8.6 nM. As to “FGF21 analog 22: Ala[Gln121, Leu168, Cys180]FGF21 with a C16 fatty diacid side chain on 180C (from UniProt Q9NSA1 29-209) (ligand)”, the potency (EC50) of ERK phosphorylation in HEK293/human KLB cells with 0.1, 1.0 and 1.5% HSA: 4.2, 52 and 92 nM (3.5 nM without HSA) turned out to be 92 nM.

The next test concerns the target human beta-klotho (KLB) on HEK293 cells (human) (UniProt Q86Z14).
On to “FGF21 analog 20 (-1A, 121Q, 168L, 180C; C12 fatty diacid on 180C) (from UniProt Q9NSA1 29-209) (ligand)”, for which the potency (EC50) of ERK phosphorylation in HEK293 cells transfected with human KLB, 0% HSA was found to be 5.8 nM.

For “FGF21 analog 23 (-1A, 121Q, 168L, 180C; C20 fatty diacid on 180C) (from UniProt Q9NSA1 29-209) (ligand)”, the potency (EC50) of ERK phosphorylation in HEK293 cells transfected with human KLB, 0% HSA is 3.8 nM. Still for that read-out and setting: as for “FGF21 analog 21 (-1A, 121Q, 168L, 180C; C14 fatty diacid on 180C) (from UniProt Q9NSA1 29-209) (ligand)”, the figure is 5.2 nM; as for “FGF21 analog 22: Ala[Gln121, Leu168, Cys180]FGF21 with a C16 fatty diacid side chain on 180C (from UniProt Q9NSA1 29-209) (ligand)”, 3.5 nM.

For a further test, the target named is FGFR4/KLB: ectodomain of human FGFR4 fused to Fc, with human beta-klotho (human) (UniProt P22455).
“Met-FGF19 (25) (from UniProt O95750 25-216) (ligand)” gave a potency EC50 of ERK phosphorylation in Ba/F3 cells overexpressing human KLB and FGFR4 (chimera with the kinase domain of FGFR1c), 0% HSA of 2.3 nM.

The next test deals with human beta-klotho (KLB) on HEK293 cells (human) (UniProt Q86Z14). The source holds these as a separate data set.
Substance “FGF21 analog 7 (-1A, 121Q, 168L, 170C; cysteamine on 170C) (from UniProt Q9NSA1 29-209) (ligand)” displayed a potency (EC50) of ERK phosphorylation in HEK293 cells transfected with human KLB, without HSA of 3.4 nM. As for “FGF21 analog 11 (-1A, 121Q, 168L, 174C; cysteamine on 174C) (from UniProt Q9NSA1 29-209) (ligand)”, the potency (EC50) of ERK phosphorylation in HEK293 cells transfected with human KLB, without HSA was 6.1 nM. Still for that read-out and setting: the figure for “FGF21 analog 19 (-1A, 121Q, 168L, 181C; cysteamine on 181C) (from UniProt Q9NSA1 29-209) (ligand)” is 24 nM. On the same count and under the same terms, the figure for “FGF21 analog 5 (-1A, 71C, 121Q, 168L; C18 fatty diacid on 71C) (from UniProt Q9NSA1 29-209) (ligand)” is 4.8 nM. In turn, “FGF21 analog 14 (-1A, 121Q, 168L, 179C; cysteamine on 179C) (from UniProt Q9NSA1 29-209) (ligand)” gave a potency (EC50) of ERK phosphorylation in HEK293 cells transfected with human KLB, without HSA of 67 nM. The same measure, in the same setting: the figure for “FGF21 analog 13 (-1A, 121Q, 168L, 178C; cysteamine on 178C) (from UniProt Q9NSA1 29-209) (ligand)” is 90 nM; for “FGF21 analog 3 (-1A, 121Q) (from UniProt Q9NSA1 29-209) (ligand)” it is 1 nM. The substance “FGF21 analog 9 (-1A, 121Q, 168L, 172C; cysteamine on 172C) (from UniProt Q9NSA1 29-209) (ligand)” yielded a potency (EC50) of ERK phosphorylation in HEK293 cells transfected with human KLB, without HSA of 3.3 nM.

Turning to “FGF21 analog 12 (-1A, 121Q, 168L, 176C; cysteamine on 176C) (from UniProt Q9NSA1 29-209) (ligand)”, the potency (EC50) of ERK phosphorylation in HEK293 cells transfected with human KLB, without HSA came out at 160 nM. Same read-out and setting: the figure for “FGF21 (0) (from UniProt Q9NSA1 29-209) (ligand)” is 1 nM.

In the case of “FGF21 analog 8 (-1A, 121Q, 168L, 171C; cysteamine on 171C) (from UniProt Q9NSA1 29-209) (ligand)”, the potency (EC50) of ERK phosphorylation in HEK293 cells transfected with human KLB, without HSA came out at 2.2 nM.

“FGF21 analog 10 (-1A, 121Q, 168L, 174C; C18 fatty diacid on 174C) (from UniProt Q9NSA1 29-209) (ligand)” yielded a potency (EC50) of ERK phosphorylation in HEK293 cells transfected with human KLB, without HSA of 1.5 nM. The same measure, in the same setting: as for “FGF21 analog 6 (-1A, 121Q, 167C, 168L; cysteamine on 167C) (from UniProt Q9NSA1 29-209) (ligand)”, the figure is 1.4 nM.

With “FGF21 analog 2 (-1A) (from UniProt Q9NSA1 29-209) (ligand)”, the potency (EC50) of ERK phosphorylation in HEK293 cells transfected with human KLB, without HSA came out at 1.3 nM. Substance “cysteamine protected Ala[Gln121, Leu168, Cys180]FGF21 (16) (from UniProt Q9NSA1 29-209) (ligand)” gave a potency (EC50) of ERK phosphorylation in HEK293 cells transfected with human KLB, without HSA (with 0.1 and 1.0% HSA: 1.8 and 2.1 nM, Table 3) of 2.5 nM.
